Laboratory results from US20210054027.

MMP-9 (recombinant human catalytic domain), sequence (chain, as listed by the source): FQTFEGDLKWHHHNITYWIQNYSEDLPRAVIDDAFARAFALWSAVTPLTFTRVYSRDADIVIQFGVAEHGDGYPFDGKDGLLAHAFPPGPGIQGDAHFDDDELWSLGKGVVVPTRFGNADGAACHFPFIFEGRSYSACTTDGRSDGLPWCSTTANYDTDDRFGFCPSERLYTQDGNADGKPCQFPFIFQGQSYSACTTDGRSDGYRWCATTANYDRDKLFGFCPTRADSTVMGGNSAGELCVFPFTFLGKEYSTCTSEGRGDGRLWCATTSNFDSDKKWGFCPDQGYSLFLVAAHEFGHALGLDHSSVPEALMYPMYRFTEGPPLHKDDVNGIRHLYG
Rho-KLDLCyclic, sequence (chain, as listed by the source): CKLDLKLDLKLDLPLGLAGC
Rho-KFDFCyclic, sequence (chain, as listed by the source): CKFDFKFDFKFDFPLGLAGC

Row | Substance | enzymatic cleavage of progelator (visible aggregation, TEM fibers) (Rho-KFDFCyclic) | enzymatic cleavage of progelator (data not shown) (KLDLCyclic) | enzymatic cleavage of progelator (visible aggregation, TEM fibers) (Rho-KLDLCyclic) | enzymatic cleavage of progelator (LCMS, 5 hr) (KFDFCyclic) | enzymatic cleavage of progelator (TEM fibers, CD) (Rho-KFDFCyclic) | enzymatic cleavage of progelator (TEM fibers, CD) (Rho-KLDLCyclic)
1 | MMP-9 (recombinant human catalytic domain) | Enzymatic cleavage by active MMP-9 and elastase (FIGS. 20a-20d) induced visible aggregation in the reaction vial and entangled fibrous meshes by TEM, whereas denatured enzymes elicited no response | KFDFCyclic and KLDLCyclic (data not shown) were treated with MI-associated enzymes, MMP-9 and elastase to confirm enzyme responsiveness | Enzymatic cleavage by active MMP-9 and elastase (FIGS. 20a-20d) induced visible aggregation in the reaction vial and entangled fibrous meshes by TEM, whereas denatured enzymes elicited no response | KFDFCyclic and KLDLCyclic (data not shown) were treated with MI-associated enzymes, MMP-9 and elastase to confirm enzyme responsiveness |  | 
2 | Thermolysin |  |  |  |  | Despite the promiscuous activity of thermolysin, incubation with Rho-KLDLCyclic and Rho-KFDFCyclic induced fiber formation by TEM | Despite the promiscuous activity of thermolysin, incubation with Rho-KLDLCyclic and Rho-KFDFCyclic induced fiber formation by TEM
